In US20210002363A1 (PHANES THERAPEUTICS, published 2021):
Read-outs that look alike come from different tables or passages of the source. One block for each binder: values may come before it.

Key:
[1] = target: T1, FOLR1 on SK-OV-3 cells (ATCC HTB-77) (Homo sapiens (Human), UniProt P15328 25-234); test: FACS on SK-OV-3 cells; MFI
T1 construct: Endogenous FOLR1 of the cell line; also called cells that are known to express FOLR1

[2] = target: T2, Recombinant extracellular domain of human FOLR1 (Novoprotein, Cat#: C784) (human, UniProt P15328 25-233, limits assumed); test: ELISA on immobilized FOLR1 extracellular domain; O.D. 450 nm
T2 construct: Bought reagent; also called recombinant FOLR1; immobilized FOLR1 extracellular domain

[3] = target: T2, Recombinant extracellular domain of …; test: as above; remark: listed apart in the source
[4] = target: T1, FOLR1 on SK-OV-3 cells (ATCC HTB-77); test: FACS on SK-OV-3 cells; MFI; remark: listed apart in the source
[5] = target: T1, FOLR1 on SK-OV-3 cells (ATCC HTB-77); test: FACS on SK-OV-3 cells; MFI; remark: listed apart in the source
[6] = target: T2, Recombinant extracellular domain of …; test: ELISA on immobilized FOLR1 extracellular domain; O.D. 450 nm; remark: listed apart in the source
[7] = target: T1, FOLR1 on SK-OV-3 cells (ATCC HTB-77); test: FACS on SK-OV-3 cells; MFI; remark: listed apart in the source
[8] = target: T1, FOLR1 on SK-OV-3 cells (ATCC HTB-77); test: FACS on SK-OV-3 cells; MFI; remark: listed apart in the source
[9] = target: T2, Recombinant extracellular domain of …; test: ELISA on immobilized FOLR1 extracellular domain; O.D. 450 nm; remark: listed apart in the source
[10] = target: T2, Recombinant extracellular domain of …; test: as above; remark: listed apart in the source
[11] = target: T1, FOLR1 on SK-OV-3 cells (ATCC HTB-77); test: FACS on SK-OV-3 cells; MFI; remark: listed apart in the source
[12] = target: T1, FOLR1 on SK-OV-3 cells (ATCC HTB-77); test: FACS on SK-OV-3 cells; MFI; remark: listed apart in the source
[13] = target: T2, Recombinant extracellular domain of …; test: ELISA on immobilized FOLR1 extracellular domain; O.D. 450 nm; remark: listed apart in the source
[14] = target: T1, FOLR1 on SK-OV-3 cells (ATCC HTB-77); test: FACS on SK-OV-3 cells; MFI; remark: listed apart in the source
[15] = target: T2, Recombinant extracellular domain of …; test: ELISA on immobilized FOLR1 extracellular domain; O.D. 450 nm; remark: listed apart in the source

T2 sequence (P15328 25-233 limits assumed): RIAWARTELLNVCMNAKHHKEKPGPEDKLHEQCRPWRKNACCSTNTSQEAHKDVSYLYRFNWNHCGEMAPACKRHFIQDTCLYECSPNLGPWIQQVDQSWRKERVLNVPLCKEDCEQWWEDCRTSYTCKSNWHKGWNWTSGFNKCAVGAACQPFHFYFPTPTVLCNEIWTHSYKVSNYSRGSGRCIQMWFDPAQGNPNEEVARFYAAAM
T1 sequence (P15328 25-234 limits assumed): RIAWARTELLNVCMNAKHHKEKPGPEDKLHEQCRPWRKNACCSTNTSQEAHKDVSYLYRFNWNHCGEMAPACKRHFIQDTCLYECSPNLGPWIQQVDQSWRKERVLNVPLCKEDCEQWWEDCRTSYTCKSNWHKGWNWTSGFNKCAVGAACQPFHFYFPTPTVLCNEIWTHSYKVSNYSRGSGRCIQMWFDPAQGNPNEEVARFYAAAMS

B2: F10-H1L1 (antibody, V domains shown)
VH: EVQLVQSGAEVKKPGSSVKVSCKASGYAFSSSWMNWVRQAPGQGLEWIGRIYPGDGYTHYNGMFKGRASLTADKSTSTGYMELSSLRSEDTAVFFCTRHGDFPYWYFDVWGRGTLVTVSP
VL: DIQMTQSPSTLSASVGDRVTITCRASENIDSYLAWYQQKPGRAPKLLVYAATNLAVGVPSRFSGSGSGTEYTLTISSLQSDDFATYYCQHHYSTPPTFGQGTKLEIK
notes: also called humanized F10 mAb H1L1
EC50 (read off the curve) [3]: 0.1 to 0.2 nM
EC50 (read off the curve) [4]: ~3 nM

B3: F10-H2L1 (antibody, V domains shown)
VH: EVQLVQSGAEVKKPGSSVKVSCKASGYAFSSSWMNWVRQAPGQGLEWIGRIYPGDGYTHYNGMFKGRASLTADKSTSTGYMELSSLRSEDTAVFFCTRHGDFPYWYFDVWGRGTLVTVSS
VL: DIQMTQSPSTLSASVGDRVTITCRASENIDSYLAWYQQKPGRAPKLLVYAATNLAVGVPSRFSGSGSGTEYTLTISSLQSDDFATYYCQHHYSTPPTFGQGTKLEIK
notes: also called humanized F10 mAb H2L1
EC50 (read off the curve) [5]: ~3 nM

B4: F10-H1L2 (antibody, V domains shown)
VH: EVQLVQSGAEVKKPGSSVKVSCKASGYAFSSSWMNWVRQAPGQGLEWIGRIYPGDGYTHYNGMFKGRASLTADKSTSTGYMELSSLRSEDTAVFFCTRHGDFPYWYFDVWGRGTLVTVSP
VL: DIQMTQSPSTLSASVGDRVTITCRASENIDSYLAWYQQKPGRAPKLLVYAATNLAVGVPSRFSGSGSGTEYTLTISSLQPDDFATYYCQHHYSTPPTFGQGTKLEIK
notes: also called humanized F10 mAb H1L2
EC50 (read off the curve) [6]: ~0.3 nM
EC50 (read off the curve) [7]: ~3 nM

B6: F20-H1L3 (antibody, V domains shown)
VH: QVQLVQSGAEVKKPGSSVKVSCKASGYTFASYYLYWVRQAPGQGLEWIGEINPRSGGTNFNEKFKSRATVTVDKSTSTAYMELSSLRSEDTAVYYCSRSGRLRGFYTMDYWGQGTLVTVSS
VL: DIQMTQSPSTLSASVGDRVTITCKAGENVGSYVSWYQQKPGKAPKLLIYGASNRYTGVPARFSGSGSATEFTLTISSLQPDDFATYYCGQTYRFLTFGQGTKVEVK
notes: also called humanized F20 mAb H1L3
EC50 (read off the curve) [10]: ~0.2 nM

B9: F5-H1L2 (antibody, V domains shown)
VH: EVQLLESGGGLVQPGGSLRLSCAVSGFTFSNYGMSWVRQAPGKGLEWVATISSGGSYTYYPDSVKGRFTISRDNSKNTLYLQMNSLRAEDTAVYYCSTQGSSGYVGYWGQGTLVTVSS
VL: DIQMTQSPSSVSASVGDRVTITCKASQDITNFIGWYQHKPGKAPKLLISYTSILESGVPSRFSGSGSGTDYTLTISSLQPEDFATYYCLQYYNLWTFGGGTKVEIK
notes: also called humanized F5 mAb H1L2
EC50 (read off the curve) [14]: ~0.9 nM
EC50 (read off the curve) [15]: 0.2 to 0.3 nM

B10: F5-H2L2 (antibody, V domains shown)
VH: EVQLVESGGGLVQPGGSLRLSCAVSGFTFSNYGMSWVRQAPGKGLEWVATISSGGSYTYYPDSVKGRFTISRDNSKNTLYLQMNSLRAEDTAVYYCSTQGSSGYVGYWGQGTLVTVSS
VL: DIQMTQSPSSVSASVGDRVTITCKASQDITNFIGWYQHKPGKAPKLLISYTSILESGVPSRFSGSGSGTDYTLTISSLQPEDFATYYCLQYYNLWTFGGGTKVEIK
notes: also called humanized F5 mAb H2L2
EC50 (read off the curve) [14]: ~0.9 nM
EC50 (read off the curve) [15]: 0.2 to 0.3 nM

The next lines start with the values.

EC50 (read off the curve) [1]: ~0.9 nM
EC50 (read off the curve) [2]: ~0.2 nM
B1: F17-H1L2 (antibody, V domains shown)
VH: EVQLVETGGGLIQPGGSLRLSCAASGFTFSDFGMHWIRQAPGKGLEWVAYMSYTPGTFHYADTVKDRFTISRDNSKNTLYLQMNSLRAEDTAVYYCARVHVGTVDYWGQGTLVTVSS
VL: EVVLTQSPATLSLSPGERATLSCRASQNINNNLHWFQQKPGQAPRLLIKYASQSISGIPARFSGSGSGTDFTLTISSLETEDFAVYFCQQSNSWPALTFGQGTKVEIK
notes: also called humanized F17 mAb H1L2

binding result [8]: binds
binding result [9]: binds
B5: F20-H1L2 (antibody, V domains shown)
VH: QVQLVQSGAEVKKPGSSVKVSCKASGYTFASYYLYWVRQAPGQGLEWIGEINPRSGGTNFNEKFKSRATVTVDKSTSTAYMELSSLRSEDTAVYYCSRSGRLRGFYTMDYWGQGTLVTVSS
VL: DIVMTQSPDSLAVSLGERATINCKAGENVGSYVSWYQQKPGQSPKLLIYGASNRYTGVPDRFSGSGSATDFTLTISSLQAEDVAVYYCGQTYRFLTFGQGTKVEIK
notes: also called humanized F20 mAb H1L2

EC50 (read off the curve) [11]: ~1 nM
EC50 (read off the curve) [9]: 0.2 to 0.3 nM
B7: F20-H3L3 (antibody, V domains shown)
VH: QVQLVQSGAEVKKPGSSVKVSCKASGYTFASYYLYWVRQAPGQGLEWIGEINPRSGGTNFNEKFKSKATVTVDKSTNTAYMELSSLRSEDTAVYYCSRSGRLRGFYTMDYWGQGTLVTVSS
VL: DIQMTQSPSTLSASVGDRVTITCKAGENVGSYVSWYQQKPGKAPKLLIYGASNRYTGVPARFSGSGSATEFTLTISSLQPDDFATYYCGQTYRFLTFGQGTKVEVK
notes: also called humanized F20 mAb H3L3

EC50 (read off the curve) [12]: ~3 nM
EC50 (read off the curve) [13]: ~0.2 nM
B8: F20-H2L4 (antibody, V domains shown)
VH: QVQLVQSGAEVKKPGSSVKVSCKASGYTFASYYLYWVRQAPGQGLEWIGEINPRSGGTNFNEKFKSRATVTVDASTSTAYMELSSLRSEDTAVYYCSRSGRLRGFYTMDYWGQGTLVTVSS
VL: DIQMTQSPSTLSASVGDRVTITCKAGENVGSYVSWYQQKPGKAPKLLIYGASNRYTGVPARFSGSGSATEFTLTISSLQPEDFATYYCGQTYRFLTFGQGTKVEVK
notes: also called humanized F20 mAb H2L4
